# Measurements from publication PMC6650801.
# Molecular target: EGFR–eGFP fusion protein (epidermal growth factor receptor fused to the F64L, S65T mutant of GFP) (UniProt P00533)
substance,measurement,value
murine EGF (epidermal growth factor) (from UniProt P01132 977-1029) (ligand),"half recovery time T1/2 of EGFR–eGFP fluorescence in stripe FRAP on F1-10 cells, before and 2.5 min after 50 nM EGF",6.4 s
